Measurements: patent US20180312587A1 (ADURO BIOTECH HOLDINGS EUROPE B V, published 2018)

T1: hSIRP-VβC1γC2β (human, UniProt O00241 30-398)
T1 chain: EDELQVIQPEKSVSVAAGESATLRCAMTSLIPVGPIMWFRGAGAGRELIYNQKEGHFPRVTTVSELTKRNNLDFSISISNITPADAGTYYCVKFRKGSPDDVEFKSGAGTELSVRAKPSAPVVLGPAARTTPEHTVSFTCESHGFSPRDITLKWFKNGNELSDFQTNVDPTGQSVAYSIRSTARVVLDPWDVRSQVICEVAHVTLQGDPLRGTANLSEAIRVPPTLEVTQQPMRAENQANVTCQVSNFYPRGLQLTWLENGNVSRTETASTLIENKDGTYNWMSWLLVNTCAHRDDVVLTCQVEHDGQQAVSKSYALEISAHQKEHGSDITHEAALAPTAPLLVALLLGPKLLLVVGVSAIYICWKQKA

T2: hSIRP-VβC1βC2γ (human, UniProt O00241 30-398)
T2 chain: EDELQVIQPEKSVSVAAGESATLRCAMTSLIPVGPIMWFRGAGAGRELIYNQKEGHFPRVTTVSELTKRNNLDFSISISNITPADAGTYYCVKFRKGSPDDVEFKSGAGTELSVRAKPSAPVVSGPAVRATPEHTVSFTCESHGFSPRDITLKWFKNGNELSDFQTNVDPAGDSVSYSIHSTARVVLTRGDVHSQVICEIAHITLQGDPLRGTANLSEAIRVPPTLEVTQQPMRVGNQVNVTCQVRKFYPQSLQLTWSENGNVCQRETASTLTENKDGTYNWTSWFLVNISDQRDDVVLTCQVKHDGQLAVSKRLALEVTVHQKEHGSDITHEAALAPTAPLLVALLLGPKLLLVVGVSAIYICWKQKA

B1: hSIRPα.40A (antibody, mouse IgG1, kappa, V domains shown)
VH: EVQFQQSGTVLARPGTSVKMSCKASGSTFTSYWMHWVKQGPGQGLQWIGAIYPVNNDTTYNQKFKGKAELTVVTSTSTAYMEVSSLTNEDSAVYYCTRSFYYSLDAAWFVYWGQGTLVTVSA
VL: DIQMTQSPSSLSASLGERVSLTCRASQDIGSRLNWLQQEPDGTIKRLIYATSSLDSGVPKRFSGSRSGSDYSLTISGLESEDFVDYYCLQYASSPFTFGGGTKLEINR
notes: mouse antibody, full chains without signal peptide; also called mouse hSIRPα.40A
B2: hSIRPα.50A (antibody, V domains shown)
VH: QVQLQQSGPELVKPGASVRISCKASGFTFTNYYIHWVKQRPGQGLEWIGWIYPGNVNTKYNEKFKAKATLTADKSSTTAYMQLSSLASEDSAVYFCARPTIIATDFDVWGAGTTVTVSS
VL: DIVMTQSHKFMSTSVGDRVNITCKASQGVGTAVGWYQQKPGQSPRLLIYWASTRHTGVPDRFTGSGSGTDFSLAISNVQSEDLADYFCQQYSTYPFTFGGGTNLEIK
notes: light chain constant domain not tied; also called mouse hSIRPα.50A; hSIRPα.50A.mIgG1

How the values were obtained:
[1] = target: T3, hSIRPα expressed on primary human cells (human, UniProt P78324 31-504); assay: flow cytometry on CD14+ enriched monocytes, human donor 1, AF647 goat-anti-mouse IgG
T3 construct: whole, on cells; also called hSIRPα on primary human CD14+ monocytes; on primary human granulocytes
T3 sequence (P78324 31-504): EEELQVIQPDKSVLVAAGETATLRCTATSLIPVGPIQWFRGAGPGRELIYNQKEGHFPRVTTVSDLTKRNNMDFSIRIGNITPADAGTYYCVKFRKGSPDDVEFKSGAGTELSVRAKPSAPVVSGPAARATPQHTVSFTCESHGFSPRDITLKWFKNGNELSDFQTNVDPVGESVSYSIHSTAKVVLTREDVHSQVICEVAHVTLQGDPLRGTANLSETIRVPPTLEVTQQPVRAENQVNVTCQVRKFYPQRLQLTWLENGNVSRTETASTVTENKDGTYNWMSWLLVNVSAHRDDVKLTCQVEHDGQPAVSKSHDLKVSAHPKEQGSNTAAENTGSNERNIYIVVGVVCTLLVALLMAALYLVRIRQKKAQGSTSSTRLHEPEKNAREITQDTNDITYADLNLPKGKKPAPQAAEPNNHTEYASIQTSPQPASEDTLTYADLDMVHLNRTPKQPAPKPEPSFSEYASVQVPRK
Experimental: Next, the binding of hSIRPα.40A to hSIRPα expressed on primary human CD14⁺ monocytes was investigated. In addition, the ability of hSIRPα.40A to block the interaction between hSIRPα and recombinant hCD47/Fc-protein was assessed. For this purpose, CD14+ monocytes were isolated from Ficoll-purified human peripheral blood mononuclear cells (PBMCs) using RosetteSep human monocyte enrichment cocktail (Stemcell). The percentage of monocytes present after the enrichment was determined by flow cytometry on the FACSVerse (BD Biosciences) based on CD14 staining using an APC-Cy7-conjugated mouse-anti-human CD14 detection antibody (BD Biosciences). […] After this labeling procedure, cells were washed two times, resuspended in PBS/1% BSA containing 0.1 μg/mL DAPI (BioLegend), and analysed by flow cytometry on the FACSVerse (BD Biosciences). Data were processed and analysed with FlowJo V10 software (FlowJo, LLC).
To assess the blocking ability of hSIRPα.40A, CD14+ enriched monocytes cells were seeded in 96-well round bottomed tissue culture plates and incubated for 45 minutes with FcR Blocking Reagent (Miltenyi Biotec) and hSIRPα.40A antibody (20 μg/mL and dilutions thereof) in PBS/1% BSA at 4° C. […] After this labeling procedure, cells were washed two times, resuspended in PBS/1% BSA containing 0.1 μg/mL DAPI (BioLegend), and analysed by flow cytometry on the FACSVerse (BD Biosciences). […]

hSIRP-VβC1γC2β = target: T1, hSIRP-VβC1γC2β; assay: CELISA, CHO-K1 transfectants, domain exchange study; nd = not detected
From the text: (§1) Based on the fold of SIRPα/β1/γ, the extracellular region can be subdivided into three separate domains: the Ig-like (immunoglobulin-like) V-type (IgV), Ig-like C1-type (IgC1), and Ig-like C2-type (IgC2) domain. The IgV domain is also known as the ligand-binding N-terminal domain of SIRPα and SIRPγ (which binds to CD47). The human SIRPβ1/γ mutants were designed based on the full length hSIRPβ1 sequence (SEQ ID NO: 38) and each individual Ig-like domain was substituted for the equivalent domain of human SIRPγ (SEQ ID NO: 40). […] Binding of hSIRPα.40A to the exchange mutants was tested using CELISA. To this end, CHO-K1 cells were transiently transfected, using Lipofectamine 2000, with the pCI-neo vectors encoding hSIRPαV1, hSIRPαV2, hSIRPβ1, hSIRP-VγC1βC2β, hSIRP-VβC1γC2β, and hSIRP-VβC1βC2γ, respectively. The transfected cells were cultured at 37° C., 5% CO₂ and 95% humidity in medium (DMEM-F12 (Gibco) with 5% New Born Calf serum (Biowest) and Pen/Strep (Gibco)) until confluent. Subsequently, cells were trypsinized and seeded in 96-well flat-bottom tissue culture plates and cultured at 37° C., 5% CO₂ and 95% humidity in culture medium until confluent. […] Reactions were stopped with 0.5 M H₂SO₄ and absorbances were read at 450 and 610 nm.

hSIRP-VβC1βC2γ = target: T2, hSIRP-VβC1βC2γ; assay: as above
From the text: as §1

| Binder | EC50 (read off the curve) [1] [nM] | binding result (hSIRP-VβC1γC2β) | binding result (hSIRP-VβC1βC2γ) |
| --- | --- | --- | --- |
| B1 | ~1 | – | – |
| B2 | – | no binding | no binding |
